Source: patent US20230118307A1, “THERAPEUTIC USE OF LONG-ACTING CONJUGATE OF TRIPLE AGONIST HAVING ACTIVITIES TO ALL OF GLUCAGON/GLP-1/GIP RECEPTORS FOR LUNG DISEASE” (HANMI PHARM. CO., LTD., priority 2020, published 2023)
Positions of bridges follow the written chain, without caps; N, C: chain ends. Non-standard residues stand in square brackets, D forms with d. No end group written: not given here. *: point of attachment. Acetyl(2-(4-imidazolyl)) = O=C(Cc1c[nH]cn1)*; Aib = CC(C)(N)C(=O)O

T1: human GIP receptor (human, UniProt P48546 22-466)
T1 sequence (looked up): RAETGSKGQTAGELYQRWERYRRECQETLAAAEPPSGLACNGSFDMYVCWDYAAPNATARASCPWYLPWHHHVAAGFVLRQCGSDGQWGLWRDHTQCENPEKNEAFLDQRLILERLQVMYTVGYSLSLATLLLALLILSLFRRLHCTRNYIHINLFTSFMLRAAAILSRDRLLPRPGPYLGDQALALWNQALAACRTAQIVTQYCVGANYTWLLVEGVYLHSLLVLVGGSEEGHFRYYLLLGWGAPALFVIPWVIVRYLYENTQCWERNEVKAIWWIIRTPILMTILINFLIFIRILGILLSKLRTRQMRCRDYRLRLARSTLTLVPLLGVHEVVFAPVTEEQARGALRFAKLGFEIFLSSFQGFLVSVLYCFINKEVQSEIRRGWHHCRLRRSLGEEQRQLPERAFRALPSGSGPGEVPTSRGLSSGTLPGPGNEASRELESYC


Assays:
Test in all cases: cell-based or functional assay
human GLP-1 receptor = human GLP-1 receptor (human, UniProt P43220 24-463)
human GIP receptor = target: T1, human GIP receptor
human GCG receptor = human GCG receptor (human, UniProt P47871 26-477)
Sequence of human GCG receptor (P47871 26-477): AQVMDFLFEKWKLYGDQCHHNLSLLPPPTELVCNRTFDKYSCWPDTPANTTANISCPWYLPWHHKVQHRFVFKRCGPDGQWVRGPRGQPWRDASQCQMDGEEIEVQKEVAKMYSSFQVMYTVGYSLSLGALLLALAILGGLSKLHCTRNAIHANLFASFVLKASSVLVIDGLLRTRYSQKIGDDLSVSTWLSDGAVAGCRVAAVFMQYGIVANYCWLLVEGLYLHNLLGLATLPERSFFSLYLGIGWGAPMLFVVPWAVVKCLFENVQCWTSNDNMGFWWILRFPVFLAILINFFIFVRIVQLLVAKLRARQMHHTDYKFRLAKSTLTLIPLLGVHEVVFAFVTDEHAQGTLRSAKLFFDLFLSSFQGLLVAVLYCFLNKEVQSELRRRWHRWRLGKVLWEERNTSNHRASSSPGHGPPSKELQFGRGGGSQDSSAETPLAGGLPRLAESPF

Binder | In vitro Activity Compared to Native Peptide (%) vs. GLP-1 (human GLP-1 receptor) [%] | In vitro Activity Compared to Native Peptide (%) vs. GIP (human GIP receptor) [%] | In vitro Activity Compared to Native Peptide (%) vs. Glucagon (human GCG receptor) [%]
Y[Aib]QGTFTSDCSKYLDERAAKDFVQWLLDHHPSSGQPPPS (bridge 16-20) [triple agonist of SEQ ID NO: 72] | 11.5 | 1.6 | 1
Y[Aib]QGTFTSDYSKCLDEKRAKDFVQWLLDHHPSSGQPPPS (bridge 16-20) [triple agonist of SEQ ID NO: 70] | 15.1 | 64.4 | 71.3
Y[Aib]QGTFTSDYSKCLDEKAAKEFVQWLLDHHPSSGQPPPS (bridge 16-20) [triple agonist of SEQ ID NO: 68] | 27.9 | 107 | 8.8
Y[Aib]QGTFTSDYSKYLDERACKDFVQWLLDHHPSSGQPPPS (bridge 16-20) [triple agonist of SEQ ID NO: 71] | 90.1 | 94.7 | 12.7
Y[Aib]QGTFTSDYSKYLDEKAAKEFVQWLLDHHPSSGQPPPSC (bridge 16-20) [triple agonist of SEQ ID NO: 75] | 35.1 | 18 | 8.5
[Acetyl(2-(4-imidazolyl))][Aib]QGTFTSDYSKCLDEKRAKEFVQWLLDHHPSSGQPPPS (bridge 16-20) [triple agonist of SEQ ID NO: 74] | 12.9 | 1 | 0.9
[Acetyl(2-(4-imidazolyl))][Aib]QGTFTSDYSKYLDECRAKEFVQWLLDHHPSSGQPPPS (bridge 16-20) [triple agonist of SEQ ID NO: 73] | 22.6 | 3 | 5.4
Y[Aib]QGTFTSDYSKCLDERAAKEFVQWLLDHHPSSGQPPPS (bridge 16-20) [triple agonist of SEQ ID NO: 69] | 24.3 | 62.8 | 9.6
Y[Aib]QGTFTSDYSKYLDECRAKDFVQWLLDHHPSSGQPPPS (bridge 16-20) [triple agonist of SEQ ID NO: 66] | 15.8 | 17.2 | 172
H[Aib]QGTFTSDVSKYLDGQAAQEFVAWLLKGC [triple agonist of SEQ ID NO: 8] | 14.2 | < 0.1 | 0.1
H[Aib]QGTFTSDYSKCLDEKRAKEFVQWLLDHHPSSGQPPPS (bridge 16-20) [triple agonist of SEQ ID NO: 65] | 95.4 | 11.6 | 25.2
Y[Aib]QGTFTSDYSKYLDECAAKDFVQWLLDHHPSSGQPPPS (bridge 16-20) [triple agonist of SEQ ID NO: 67] | 28.5 | 39.8 | 46.2
